Measurements from the supplement of paper PMC10567573.

B1: SPOPL (parent)
chain: AKREETKAMESQRAYRFVQGKDWG

Variants of: B1
Assay: protein stability index of a GFP-peptide fusion (GPS, HEK-293T) (PSI 1-6); higher = more stable
Conditions: c terminus: a fixed tail appended
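Also: lentivirally expressed fusions sorted by FACS into six bins by GFP to DsRed ratio, PSI derived from sequencing read proportions per bin multiplied by bin number.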

Point of comparison: AKREETKAMESQRAYRFVQDKDWG, protein stability index 4.06. Against it:
- AKREETKAMESQRAYRFVQGKLWG — lower, 2.94
- AKREETKAMESQRAYRFVQGKHWG — lower, 3.1
- AKREETKAMESQRAYRIVQGKDWG — lower, 4.02
- AKREETKAMESQRAYRTVQGKDWG — lower, 4.04
- AKREETKAMESQRAYRCVQGKDWG — higher, 4.24
- AKREETKAMESQRAYRWVQGKDWG — higher, 4.36
- AKREETKAMESQRAYRLVQGKDWG — lower, 3.67
- AKREETKAMESQRAYRVVQGKDWG — lower, 3.94
- AKREETKAMESQRAYRAVQGKDWG — higher, 4.73
- AKREETKAMESQRAYRQVQGKDWG — higher, 4.37
- AKREETKAMESQRAYRNVQGKDWG — higher, 4.59
- AKREETKAMESQRAYRMVQGKDWG — lower, 3.96
- AKREETKAMESQRAYRHVQGKDWG — lower, 3.72
- AKREETKAMESQRAYRKVQGKDWG — higher, 4.45
- AKREETKAMESQRAYREVQGKDWG — higher, 4.61
- AKREETKAMESQRAYRDVQGKDWG — higher, 4.72
- AKREETKAMESQRAYRSVQGKDWG — higher, 4.19
- AKREETKAMESQRAYRPVQGKDWG — lower, 4.03
- AKREETKAMESQRAYRGVQGKDWG — higher, 4.68
- AKREETKAMESQRAYRRVQGKDWG — higher, 4.59
- AKREETKAMESQRAYRYVQGKDWG — higher, 4.18
- AKREETKAMESQRAYYFVQGKDWG — lower, 3.24
- AKREETKAMESQRAYMFVQGKDWG — lower, 3.65
- AKREETKAMESQRAYGFVQGKDWG — lower, 3.63
- AKREETKAMESQRAYIFVQGKDWG — lower, 3.42
- AKREETKAMESQRAYVFVQGKDWG — lower, 3.51
- AKREETKAMESQRAYQFVQGKDWG — higher, 4.17
- AKREETKAMESQRAYPFVQGKDWG — lower, 3.68
- AKREETKAMESQRAYKFVQGKDWG — lower, 3.99
- AKREETKAMESQRAYEFVQGKDWG — higher, 4.2
- AKREETKAMESQRAYWFVQGKDWG — lower, 2.94
- AKREETKAMESQRAYFFVQGKDWG — lower, 2.63
- AKREETKAMESQRAYHFVQGKDWG — higher, 4.49
- AKREETKAMESQRAYLFVQGKDWG — lower, 3.6
- AKREETKAMESQRAYTFVQGKDWG — lower, 4.04
- AKREETKAMESQRAYSFVQGKDWG — lower, 4.04
- AKREETKAMESQRAYNFVQGKDWG — higher, 4.2
- AKREETKAMESQRAYRFVQGKDWP — lower, 2.45
- AKREETKAMESQRAYRFVQGKDWR — lower, 3.73
- AKREETKAMESQRAYRFVQGKDWN — lower, 3.63
- AKREETKAMESQRAYRFVQGKDWQ — higher, 4.07
- AKREETKAMESQRAYRFVQGKDWY — lower, 2.41
- AKREETKAMESQRAYRFVQGKDWC — lower, 2.18
- AKREETKAMESQRAYRFVQGKDWD — higher, 4.16
- AKREETKAMESQRAYRFVQGKDWT — lower, 2.96
- AKREETKAMESQRAYRFVQGKDWE — lower, 3.24
- AKREETKAMESQRAYRFVQGKDWL — lower, 2.64
- AKREETKAMESQRAYRFVQGKDWH — lower, 3.39
- AKREETKAMESQRAYRFVQGKDWS — lower, 3.49
- AKREETKAMESQRAYRFVQGKDWM — lower, 2.54
- AKREETKAMESQRAYRFVQGKDWF — lower, 1.81
- AKREETKAMESQRAYRFVQGKDWK — higher, 4.32
- AKREETKAMESQRAYRFVQGKDWA — lower, 3.44
- AKREETKAMESQRAYRFVQGKDWW — lower, 2.27
- AKREETKAMESQRAYRFVQGKDWI — lower, 3
- AKREETKAMESQRAYRFVQGKDWV — lower, 2.91
- AKREETKAMESQRAYRFVQGKDFG — lower, 3.53
- AKREETKAMESQRAYRFVQGKDCG — higher, 4.9
- AKREETKAMESQRAYRFVQGKDDG — higher, 4.4
- AKREETKAMESQRAYRFVQGKDEG — higher, 5.14
- AKREETKAMESQRAYRFVQGKDKG — higher, 4.87
- AKREETKAMESQRAYRFVQGKDGG — higher, 4.88
- AKREETKAMESQRAYRFVQGKDHG — higher, 4.77
- AKREETKAMESQRAYRFVQGKDIG — higher, 4.18
- AKREETKAMESQRAYRFVQGKDPG — higher, 4.79
- AKREETKAMESQRAYRFVQGKDMG — higher, 4.86
- AKREETKAMESQRAYRFVQGKDAG — higher, 4.8
- AKREETKAMESQRAYRFVQGKDLG — higher, 4.21
- AKREETKAMESQRAYRFVQGKDYG — lower, 4.05
- AKREETKAMESQRAYRFVQGKDSG — higher, 4.91
- AKREETKAMESQRAYRFVQGKDRG — higher, 4.49
- AKREETKAMESQRAYRFVQGKDNG — lower, 3.65
- AKREETKAMESQRAYRFVQGKDQG — higher, 4.8
- AKREETKAMESQRAYRFVQGKDVG — higher, 4.72
- AKREETKAMESQRAYRFVQGKDTG — higher, 4.86
- AKREETKAMESQRAYRFVQWKDWG — lower, 2.72
- AKREETKAMESQRAYRFVQYKDWG — lower, 3.13
- AKREETKAMESQRAYRFVQKKDWG — lower, 3.64
- AKREETKAMESQRAYRFVQPKDWG — lower, 2.83
- AKREETKAMESQRAYRFVQMKDWG — lower, 2.58
- AKREETKAMESQRAYRFVQTKDWG — lower, 3.41
- AKREETKAMESQRAYRFVQHKDWG — lower, 3.33
- AKREETKAMESQRAYRFVQVKDWG — lower, 3.19
- AKREETKAMESQRAYRFVQLKDWG — lower, 2.88
- AKREETKAMESQRAYRFVQNKDWG — lower, 3.76
- AKREETKAMESQRAYRFVQQKDWG — higher, 4.14
- AKREETKAMESQRAYRFVQIKDWG — lower, 2.73
- AKREETKAMESQRAYRFVQAKDWG — lower, 3.33
- AKREETKAMESQRAYRFVQCKDWG — lower, 2.97
- AKREETKAMESQRAYRFVQSKDWG — lower, 3.35
- AKREETKAMESQRAYRFVQRKDWG — lower, 3.59
- AKREETKAMESQRAYRFVQFKDWG — lower, 3.49
- AKREETKAMESQRAYRFVQEKDWG — higher, 4.31
